The DeepSol protein solubility set

Test: soluble on expression in E. coli; label from the status in PepcDB or PDB records

Sequence | soluble on expression in E. coli
MGSDKIHHHHHHMKIAVLPGDGIGPEVVREALKVLEVVEKKTGKTFEKVFGHIGGDAIDRFGEPLPEETKKICLEADAIFLGSVGGPKWDDLPPEKRPEIGGLLALRKMLNLYANIRPIKVYRSLVHVSPLKEKVIGSGVDLVTVRELSYGVYYGQPRGLDEEKGFDTMIYDRKTVERIARTAFEIAKNRRKKVTSVDKANVLYSSMLWRKVVNEVAREYPDVELTHIYVDNAAMQLILKPSQFDVILTTNMFGDILSDESAALPGSLGLLPSASFGDKNLYEPAGGSAPDIAGKNIANPIAQILSLAMMLEHSFGMVEEARKIERAVELVIEEGYRTRDIAEDPEKAVSTSQMGDLICKKLEEIW | soluble
MGSDKIHHHHHHMKIAVVGAGLTGLKTAKELAEHAKVVVFEPDDVGGLVATFREFSIEKFYHHCFRDDAFLLEEIKRCGLKSKLVWKIAKTGFAANGKIYPLNTPFEILRYPLLTFGEKIRLARFTLKSRKLNYEDFDDVGVSEGIREELGEGLLERFFMPLLRSKFGENAEKVSYAWLLGRVAIRSNRKYSGEEIGYIRHGFQQLVDKMAEGLEIRRERARIRKNARWDVNGEDFDAVVYTAPLSELGELAEKLGIPEVRYQSSVCALIGAEETLTENIYWTNIADKMSFGAVIEHTNFMPFEDYGIHLMYLAAYSTPDGWLFNLSDKEIEKLFLSDLRKLGFKTESVRFVRVFKAKYSGPIYEKGYRRKITPYRVAEGFYVAGMTSRPNYPERSMNGSIRAGKEVAEQVKEDLL | not soluble
MGSDKIHHHHHHMKIDELIALAAEQPTRISRRSGVSRSTLKRVGDGTSEPTLSTLREVALALGLDIKVAAHHACDPFAAAAARTLIDASVPENPHNQEILAWLHRFERWNINDPLTLVSEAGTLQGITHRQDAQFVKLNPRGIAELPELFQQHKTKWALSGAAAATVIMGQIVLGNSIVWHEPAHDLDVSALGTIVDVAEDADLILLPATVTELVGSYTQDRLNFVAPVQLVIDLHSLHMFEEADYLTSGWR | not soluble
MGSDKIHHHHHHMKIGDKVRFLSEVGGGIVTGFKGKDFVLVEDADGFDIPMPIRECVVIEADDYNIKRKPAATAPKQEEPAKPAKPEMPVIQRQPEVRGGDTLNVFLAYVPEDAKAMMTTPFEAYLVNDSNYYLYYTYLSAEGKAWNNRSHGLVEPNTKLLLEEFTKDVLNEMERVAVQLIAFKDGKPAAIKPAVSVELRIDTVKFYKLHTFSASDFFEEPALIYDIVKDDVPAKQVYVSAEEIQSALLQKKFVDKPKSQPIMKPNHGQSGKNGIIEVDLHIDSLLDDTHGMSNSEILNYQLDKFREVIEANKEKREQKVVFIHGKGDGVLRKAIIDELKRKHSNYRYQDASFQEYGFGATMVTIK | not soluble
MGSDKIHHHHHHMKIGIVGLGRVGSSTAFALLMKGFAREMVLIDVDKKRAEGDALDLIHGTPFTRRANIYAGDYADLKGSDVVIVAAGVPQKPGETRLQLLGRNARVMKEIARNVSKYAPDSIVIVVTNPVDVLTYFFLKESGMDPRKVFGSGTVLDTARLRTLIAQHCGFSPRSVHVYVIGEHGDSEVPVWSGAMIGGIPLQNMCQICQKCDSKILENFAEKTKRAAYEIIERKGATHYAIALAVADIVESIFFDEKRVLTLSVYLEDYLGVKDLCISVPVTLGKHGVERILELNLNEEELEAFRKSASILKNAINEITAEENKHQNTSG | not soluble
MGSDKIHHHHHHMKIKAIITGATGMVGEGVMHECLLNPDVEEVLIINRKPSGFTHAKLKEIIHTDFFNLAPVEQQLAGYNACYFCLGVSSIGMNEADYTKMTYTLTMHVAETLSRLNKDMTFCYVSGASTDSTEKGKSMWARVKGKTENDLTRLPFKDVYNFRPGYMQPTPGLKNTQKYYTYMSWMYPFLKLVFKNYVSTLKDVGLAMIRVTLFGHNKQVLEVPDIKALAKKTQFV | not soluble
MGSDKIHHHHHHMKIKKYVAESIREAMIMIRRELGENAVILSSRRIKKGGFFGIGGKTYFEVTAAVEEERKKEENTSYRLQEILVKNRQSSNDNIKGEFDEIKRTINEIKQMLVTEKRQTLPEGLSKILYGMEKQEILPEIRYKLIDFLKMKFGDLDPNSNETFKILSEQFVNLVKTNAPDFKNAKVLFVGTTGVGKTTSLAKLAARFKIDEKKRVAILTLDTYRIAAAEQLKIYADIMDIPMKIAYTPKEAEYEMMALKDYDIVLVDTAGRSHQNDLQMSELRALSEAVKPNITFLVLSMNYKLDDMKRIVERFSAVKPTHIILTKMDETSVYGTFVNISEITGLPIAFVTNGQRVPDDIFEANPVELARIVAGEVLNHARSSGTSEKE | not soluble
MGSDKIHHHHHHMKILFLADEESKMYWEYFKKEDFKGIDIIVSCGDLNPSYLSFLTTMVGVPLLYVHGNHDDKYNVKPPEGCICIEDEIYEYEGVRFLGLGGSNRYKPGENQYTQKEMTKRVKKLWWKLKRKNGFDVLVTHSPAKGLHDGEDTCHTGFDVFNRLIEQYKPRYFVHGHVHMSYGRQFVRLDKVGETTVINAYEKYIVEI | not soluble
MGSDKIHHHHHHMKITTKQVGARMREARKKKKYTLRYLANKIGLSSGSTISNWELGLNLPNKRYLKKIAKACDTTVDWLLYGDFDRFVRQLLKENFQNKQLLKPPFFTQLMGRLSEEQLSYHDSLKIMIQAQKLQQSFYAFPLTVEAPSHSQESISIYEPTTAEEQSDQSYYHPFILSELHELFTHSQNPELDYSLIIAFLPLLKVDQLTEPQKEVLLAIFKRMNSFKDQTLLNEFFVELQYLL | not soluble
MGSDKIHHHHHHMKKETKHFRALLADNALYYIYSNISAPLSLQELAKEAGVSAHHFHRIFKEEQGQNLYETIKSIRLQKAANLLLSNHYSTISEVAQLCGYSSSASFIKAFKGRFHLTPREWRHGGHRQYAKEILSTSSAAMASQRSFLGLEPTIKKIPAFRAVYLRHKGYNKSIALSWQKLMAWGFEHQISSQARQIGIHHDNPSITPLAECRYIAALEVEEGFRAQGLLGVMEFPPTLCAVFEVQGRYGDVLGLIDYVYHEWLPQSGYEAKTIPAFALYQKNHFLDPLGNFQLDFCLPVGVV | not soluble
MGSDKIHHHHHHMKKIIIVSCLMSGVLNFGYSITTESIPTCSSFLSKLLSTAKSDTLSKVKLENCTFEEFKNNYDKDKFPVEFRNNQEEKSFYRHLKERDNYAGISNLYDMWKWVRFNRGFLEQQNEKLFHVYDKLNEVGINPESLDSMSYLNLKGINENINALTESINPSVEAIKYLLPDFEKYVAAYEKLAKEGDSLSYSDFKKASGRGATTANIQQIDQRILHQFRKEMHMNTANTAAMSSLNFGNGYGVSVGAAIGGHKGQYSLALGTAYTDYQTQVNVKIALPVKQPKPSNITYGVGFVYNFQ | not soluble
MGSDKIHHHHHHMKKKIIHTLVYNYEIPVSLEEHLICLKPRSNSFQELSNFDLQIFPSPYSIFPLLSDNGDDIFKLLFTGSTNSLKIKTESDIETNIHPDLYQLKNDYDLSLPLKIESNDSLIGFIKGWFPNGQHDPAAIRIAQEALAGINNNVLDFLYHLIELIKDRVKYTPRHIGPAWTSGRTLSERVGSCRDLAILLMETCRCVGIPSRFVSGYQFMDQAPDKYELHAWTEVYIPGFGWRGFDPSGCGLINHNYVALASSSKSELVAPLRGSFVGPSNLKSELEWKIDIT | not soluble
MGSDKIHHHHHHMKKKTTTVYVDKQYKLTRDVAPLSFMLPIKHSRRFPLLHFDESTGTNRELRYARNQKSPFVDKQDGNALLEPVIFEDGFLFVKKENQVLQQFLHYHPLNGTKFVEVDKSKDAAQVVDQLMIEADALVEAKKLSLEQLENVCRVLFNTNVDKLTTAEMKRDVLVFAKNNPQDFLDICSDPELKIMGMVQSFFDKGHLAYRKSKKEVWYNTPTNKTKMLNVPFGADGLDLVVSYLQSDEGIDVLKHLETL | not soluble
MGSDKIHHHHHHMKKLDLDVLAMVVAVAESGSFAQGAQAVHRSPSAVSMQIKALEDALGKPLFIRDTRNVTATDDGRMLAEYGRRMLAMRDEAWASVVRPEIRGRVTIGVPDDYISSLLPQVLGKFAAMHPRVEVRVIGQPSSALVPMLKDNTVDLACLTRIKGVTGELIRMEPLVWVGSPKRNVWEERPLPVAFFTHGGSMARDHAVKALNRRKIPYRMSYESPSHLGLLSMVEAGLAVAPLARCCIPDHLVQLSESHGLPSLGELEVVLARSAKSARPPCDYLAEQILDEWRT | not soluble
MGSDKIHHHHHHMKKLLLPLIIMLLVLAACGNQGEKNNKAETKSYKMDDGKTVDIPKDPKRIAVVAPTYAGGLKKLGANIVAVNQQVDQSKVLKDKFKGVTKIGDGDVEKVAKEKPDLIIVYSTDKDIKKYQKVAPTVVVDYNKHKYLEQQEMLGKIVGKEDKVKAWKKDWEETTAKDGKEIKKAIGQDATVSLFDEFDKKLYTYGDNWGRGGEVLYQAFGLKMQPEQQKLTAKAGWAEVKQEEIEKYAGDYIVSTSEGKPTPGYESTNMWKNLKATKEGHIVKVDAGTYWYNDPYTLDFMRKDLKEKLIKAAK | not soluble
MGSDKIHHHHHHMKKQPSATVNQEKESELIEGLMSNDDLAYETLVRQYSAKMYAVARRFFCTNDDAQECLQKAFIQVFKNITSFKQNSNLSTWLHRITVNEALMMLRQRKRQNTTSLEEFAQHYNEYGERTVFADNLGNNLNNNLGTILGGNVETLFEKTETKLSLNDIIFQLPEKYCNVLLLRDIQEISTKETAEILAISESLVKTQLHRARLLLKAILEQDDKDNLESNWKVNSHVND | not soluble
MGSDKIHHHHHHMKKSLIELLEARQKATDELAEVKLKKATIEAKMKSSTIEDDDLEQLKTDAESLVSQATAIKETIAGLDSDIEETEEELSKAAKIIKEKQKGNTPMDYLKTKAAALDFVRILMDNEGSANSARKAWEANLVEKGVTNLTKILPEPVLIAIQDAFTNYNGILNHVSKDPRYAVRVALQTQVSQAKGHKAGKTKKDEDFTFLDFTINSATVYIKYAFEYSDLKKDTTGAYFNYVMKELAQGFIRTIERAVVIGDGKSNSAEDKITEIKSIAEETEANLFETQEINVAGVFDNAVLETLVAGIDKMVPNTTPILVTSKAIARKLKLVKDAEGRYIDPQPFAPIATNGNVIAGFQVYIYDWMDGATNPIIAFADQAYKMIGDEAAADRFDDYDVTVNRRHIELASVMGGRLAQYKSAVKFTNPAG | not soluble
MGSDKIHHHHHHMKKTIILSDENYYSQEADLAYMSVSQYKKFLECEAAALAKLKGEWTPENDPKALLVGNYVHSYFESPEIHEAFKEENKSKMFSSRKPFGLLKDFQIAEQMIERLKQEEAFLNIYQGEKEVIVTGEIGGAMWKGKIDCLNLEEKYFVDIKTTKDMHEKKWDERLNRKANFIERFGYVLQMAVYCELLRQQYDKIFLPLIAAVSKQTPSEAKLITLSEEKMIYELEELKENIEHVVRVKNGEEEPVSCGICEYCRGHNKITNFTSMDDL | not soluble
MGSDKIHHHHHHMKKVVVGLSGGVDSSTAAAILHNQGYEVIGLTLWLMKGKGQCCSEGMIDAAYICEQLGIPHEVVDMRDVFQTHIVDYLVTGYGAGITPLPCSQCNKTVKFGPMVQYAREQLGCDRIATGHYARISYDEASGRYQLLRAVDRNKDQSYFLYDLSQDLLAASLFPLGEMEKADTRRIATEHGLKTADKPESQDLCLVESNGSMRAFLDKYIAPKKGDIVDTAGKILGQHDGVHHYTIGQRKGLGIAAPEPLYVVELDAVNNKVVVGDRTKATQEECTVSRVNWVSIPEPSTPIRAAVQIRYRSAPEPVTVIPLENSRVRLVFDEPQFSITPGQAAVWYDGDKVLGGGIIEQFSN | not soluble
MGSDKIHHHHHHMKLGYCSITWGGVVGHPGGVTSVKDLFYLTHGSMKDAIHDIASVGYEGVEMFDGNLAEYADKPEVLKELLNSSGVSLTSVYTGANFIYADILPDELHRIHRSAELAANFGADRLVVGGGARRAAGTTDEDYHRLGRALDSVTDIAESFGLSASYHPHLTTIVESPDELDKLMPLTRIGFCPDTAHLAAGGADPAAVIRKYPDRIRHVHLKDFRQDPFTFLPLGQGELDFPDILAAIRESGYDSWLMVELDNYDGDPREAAELSMKYLEKLL | not soluble
